The sequences below were run on Escherichia coli TOP10 (assay: shrunken log2 fold change of peptide-encoding DNA abundance (4.5 h post-induction vs induction); higher = less antimicrobial activity (less host growth inhibition)). Conditions: time post-induction: 4.5 h; library: site-saturation at positions 5, 18, 19, 20.
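Note: peptides expressed intracellularly from a pBAD plasmid library in pooled LB shake-flask culture, induced with 0.3% L-arabinose, DNA abundance read by NGS, three biological replicates, DESeq2 with apeglm shrinkage.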

First: RRIRMRPPRLPRPRPRPYSVPRP
Second: RRIRYRPPRLPRPRPRPFANPRP
The “shrunken log2 fold change” value of the first is higher: 0.0409 for the first, -0.245 for the second.

Going from RRIRRRPPRLPRPRPRPIYRPRP to RRIRWRPPRLPRPRPRPLQPPRP, the “shrunken log2 fold change” value rises from -0.273 to 0.54.

First: RRIRMRPPRLPRPRPRPGHAPRP
Second: RRIRYRPPRLPRPRPRPPRTPRP
The “shrunken log2 fold change” value of the first is higher: 2.85 for the first, -0.0112 for the second.

Going from RRIRPRPPRLPRPRPRPWTWPRP to RRIRKRPPRLPRPRPRPGPGPRP, the “shrunken log2 fold change” value rises from -0.0128 to 0.493.

Going from RRIRHRPPRLPRPRPRPRMRPRP to RRIRKRPPRLPRPRPRPVGQPRP, the “shrunken log2 fold change” value falls from 0.39 to 0.0743.

Compared with RRIRVRPPRLPRPRPRPMFRPRP, RRIRGRPPRLPRPRPRPELWPRP is higher in “shrunken log2 fold change” value: -0.048 for the first, 2.06 for the second.

First: RRIRKRPPRLPRPRPRPSHLPRP
Second: RRIRDRPPRLPRPRPRPMQWPRP
The “shrunken log2 fold change” value of the first is lower: -0.124 for the first, 0.0918 for the second.

First: RRIRGRPPRLPRPRPRPYRNPRP
Second: RRIRMRPPRLPRPRPRPERGPRP
The “shrunken log2 fold change” value of the first is lower: -0.39 for the first, 1.39 for the second.

Going from RRIRIRPPRLPRPRPRPIAVPRP to RRIRVRPPRLPRPRPRPYDHPRP, the “shrunken log2 fold change” value falls from -0.0939 to -0.347.

RRIRIRPPRLPRPRPRPNRRPRP and RRIRHRPPRLPRPRPRPQRCPRP are within 0.2 log units of each other in “shrunken log2 fold change” value: 0.041 for the first, -0.00202 for the second.

RRIRSRPPRLPRPRPRPCIEPRP and RRIRRRPPRLPRPRPRPSNEPRP are within 0.2 log units of each other in “shrunken log2 fold change” value: -0.21 for the first, -0.105 for the second.

Compared with RRIRIRPPRLPRPRPRPRTPPRP, RRIRWRPPRLPRPRPRPCTLPRP is lower in “shrunken log2 fold change” value: 0.089 for the first, -0.842 for the second.

RRIRVRPPRLPRPRPRPADVPRP and RRIRTRPPRLPRPRPRPVSDPRP are within 0.2 log units of each other in “shrunken log2 fold change” value: 0.000571 for the first, -0.114 for the second.

RRIRPRPPRLPRPRPRPIWHPRP and RRIRFRPPRLPRPRPRPSQMPRP are within 0.2 log units of each other in “shrunken log2 fold change” value: -0.0776 for the first, -0.208 for the second.

Going from RRIRSRPPRLPRPRPRPRLWPRP to RRIRVRPPRLPRPRPRPNVGPRP, the “shrunken log2 fold change” value falls from 0.397 to 0.00661.

RRIRQRPPRLPRPRPRPMVQPRP and RRIRHRPPRLPRPRPRPDNDPRP are within 0.2 log units of each other in “shrunken log2 fold change” value: -0.00171 for the first, 0.00849 for the second.

RRIRTRPPRLPRPRPRPEWAPRP and RRIRCRPPRLPRPRPRPAGFPRP are within 0.2 log units of each other in “shrunken log2 fold change” value: 0.213 for the first, 0.1 for the second.

Compared with RRIRQRPPRLPRPRPRPHWPPRP, RRIRKRPPRLPRPRPRPAMTPRP is higher in “shrunken log2 fold change” value: -0.0715 for the first, 0.596 for the second.

Going from RRIRDRPPRLPRPRPRPKPLPRP to RRIRFRPPRLPRPRPRPRCFPRP, the “shrunken log2 fold change” value falls from 0.101 to -0.183.

RRIRCRPPRLPRPRPRPHALPRP and RRIRTRPPRLPRPRPRPVIPPRP are within 0.2 log units of each other in “shrunken log2 fold change” value: -0.0688 for the first, -0.133 for the second.

Going from RRIRLRPPRLPRPRPRPVMYPRP to RRIRGRPPRLPRPRPRPCVCPRP, the “shrunken log2 fold change” value rises from -0.302 to 0.617.

Compared with RRIRCRPPRLPRPRPRPCYLPRP, RRIRRRPPRLPRPRPRPEKRPRP is higher in “shrunken log2 fold change” value: -0.684 for the first, 0.296 for the second.

RRIRCRPPRLPRPRPRPEMEPRP and RRIRGRPPRLPRPRPRPHDYPRP are within 0.2 log units of each other in “shrunken log2 fold change” value: 0.00408 for the first, 0.0282 for the second.

First: RRIRWRPPRLPRPRPRPTAVPRP
Second: RRIRLRPPRLPRPRPRPALCPRP
The “shrunken log2 fold change” value of the first is higher: 0.415 for the first, 0.00966 for the second.

Compared with RRIRRRPPRLPRPRPRPYLLPRP, RRIRGRPPRLPRPRPRPGHAPRP is higher in “shrunken log2 fold change” value: -0.263 for the first, 0.801 for the second.

RRIRRRPPRLPRPRPRPLYKPRP and RRIRHRPPRLPRPRPRPGTSPRP are within 0.2 log units of each other in “shrunken log2 fold change” value: -0.248 for the first, -0.0565 for the second.

Going from RRIRNRPPRLPRPRPRPVCEPRP to RRIRFRPPRLPRPRPRPGCQPRP, the “shrunken log2 fold change” value falls from 1.34 to -0.157.

Going from RRIRKRPPRLPRPRPRPTYEPRP to RRIRRRPPRLPRPRPRPPGEPRP, the “shrunken log2 fold change” value rises from 0.367 to 0.705.

Going from RRIRFRPPRLPRPRPRPDHEPRP to RRIRQRPPRLPRPRPRPYSSPRP, the “shrunken log2 fold change” value falls from 0.193 to -0.751.

First: RRIRHRPPRLPRPRPRPLRGPRP
Second: RRIRGRPPRLPRPRPRPTQCPRP
The “shrunken log2 fold change” value of the first is higher: 1.02 for the first, 0.222 for the second.
